The record followed here is patent US20250243282A1 (TRUEBINDING, published 2025).

Some results are limits rather than exact numbers.

Experiment [1] addresses T1, human Gal3 protein (recombinant human Galectin-3) (human, UniProt P17931 2-250).
T1 construct: also called hGal3; hGAL3

Experiment [2] has as its target T2, Recombinant human Gal3 (rhGal3) (TrueBinding, #QC200361) (human, UniProt P17931 2-250). The experiment is described as follows: cell-based or functional assay.
In experiment [3] the target is T2, Recombinant human Gal3 (rhGal3) …. The experiment is described as follows: cell-based or functional assay. The source holds these as a separate data set.
In experiment [4] the target is T1, human Gal3 protein (recombinant human …). Put plainly: SPR (Carterra LSA), antibody immobilised on HC200M chip, hGal3 injected.
Experiment [5] addresses T2, Recombinant human Gal3 (rhGal3) …. Put plainly: cell-based or functional assay. This is another data set of the same source.
Throughout, for % inhibition of CD62L shedding: test concentration or dose not given here.
Throughout, for % inhibition of IL-6 secretion: test concentration or dose not given here.
Throughout, for % inhibition of TNFα secretion: test concentration or dose not given here.

T1 sequence (P17931 2-250 limits assumed): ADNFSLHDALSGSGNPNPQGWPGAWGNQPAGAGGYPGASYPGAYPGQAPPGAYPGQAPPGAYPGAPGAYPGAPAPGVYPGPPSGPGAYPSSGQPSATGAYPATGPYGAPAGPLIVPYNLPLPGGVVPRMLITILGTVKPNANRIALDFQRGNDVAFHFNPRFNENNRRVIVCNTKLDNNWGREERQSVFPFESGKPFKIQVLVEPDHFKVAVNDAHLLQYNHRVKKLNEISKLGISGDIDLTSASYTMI

B1: mIMT001 (antibody, mouse IgG2a, V domains shown)
VH: QIQLVQSGPELKKPGETVKISCKASGYTFTNYGMNWVKQAPGKGLKWMGWINTNTGEPTYVEEFKGRFAFSLETSASTAYLQINNLKNEDTATYFCAPYDNFFAYWGQGTLVTVSA
VL: DIVITQDELSNPVTSGESVSISCRSSKSLLYKDGKTYLNWFLQRPGQSPQLLIYLMSTHASGVSDRFSGSGSGTDFTLEISRVKAEDVGVYYCQQLVDYPLTFGAGTKLELKR
notes: also called murine IMT1; mIMT1
Consider B1, for which the “% blocking” value in experiment [1] is > 95%.

B2: 846.2B11 (antibody, human IgG4 S228P, kappa, V domains shown)
VH: QVQLQQSGPELVRPGALVKISCKASGYTFTSYDINWVKQRPGQGLEWIGWIYPGDGSTKYNEKFKGKATLTADKSSSTAYMQLSSLTSENSAVYFCAREAASNAMDYWGQGTSVTVSS
VL: DIVLTQSPASLGVSLGQRATISCRASKSVSTSGYSYMHWYQQKPGQPPKLLIYLASILESGVPARFSGSGSGTDFTLNIHPVEEEDAAIYYCQHSRELPLTFGAGTKLELKR
As to B2, in experiment [2], the “% inhibition of IL-6 secretion” value was -0.5% and the “% inhibition of TNFα secretion” value is -98%. Moreover, the “% inhibition of CD62L shedding” value in experiment [3] was determined as 8.2%. Moreover, the binding result in experiment [4] is reported as “no binding”.

B3: 847.10C9 (antibody, V domains shown)
VH: EVQLQQSGAELVRPGTSVKVSCKASEYAFNNYMMEWVKQRPGQGLEWIGVINPGSGATNYNENFKDKATLTADKSSTTAYMQLSSLTSDDSAVYFCTYNDLGYWGQGTLVTVSA
VL: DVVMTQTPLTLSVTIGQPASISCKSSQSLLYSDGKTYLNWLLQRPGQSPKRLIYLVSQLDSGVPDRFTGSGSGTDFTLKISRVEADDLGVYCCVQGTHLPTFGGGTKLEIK
As for B3, in experiment [2], the “% inhibition of IL-6 secretion” value is > -1000% and the “% inhibition of TNFα secretion” value is -246%. Also, in experiment [3], the “% inhibition of CD62L shedding” value was determined as 150%.

B4: 2D10.2B2 (antibody, mouse IgG2a, V domains shown)
VH: QVQLQQSGPELVKPGASVKISCKASGYTFTDYYINWVKQRPGQGLEWIGWIYPGSNDTKYNEKFKGKATLTVDTSSSTAYMQLGSLTSEDSAVYFCANYFGCSGWFFDVWGTGTTVTVSS
VL: DIVMTQAAFSNPVTLGTSASISCRSSKSLLHSDGITYLYWYLQRPGQSPQLLIYRMSNLASGVPDRFSGSGSGTDFTLRISRVEAEDVGVYYCAQMIEFPLTFGAGTILELKR
For the molecule B4, the “% blocking” value in experiment [1] was > 95%.

B5: 847.21B11 (antibody, V domains shown)
VH: QVQLKQSGPGLVAPSQSLSITCTVSGFSLTSYGVHWVRQPPGKGLEWLGIIWAGGSTNYNPALMSRLSISKDKSKSQVFLKMNSLKTDDTAMYYCARDRASLLRPGAMDYWGQGTSVTVSS
VL: DIVMTQSQKFMSTSVGDRVSVTCKASQNVGINVAWYQQKPGQSPKALIYSASYRYSGVPDRFTGSGSGTDFTLTISNVQSEDLAEYFCQQYNSYPYTFGGGTKLEMK
With B5, in experiment [2], the “% inhibition of IL-6 secretion” value stood at 27.3% and the “% inhibition of TNFα secretion” value was -136%. Besides, the “% inhibition of CD62L shedding” value in experiment [3] was determined as 16.4%. Moreover, the binding result in experiment [4] was “no binding”.

B6: 6H6.2D6 (antibody, human IgG4 S228P, kappa, V domains shown)
VH: QIQLVQSGPELKKPGETVKISCKASGYTFTTYGMSWVKQAPGKGLKWMAWINTYSGVPTYADDFKGRFAFSLETSASTAYLQINNLTNEDTATYFCARGPYAMDYWGQGTSVTVSS
VL: DIQMTQTTSSLSASLGDRVTISCSASQGISNYLNWYQQKPDGTVKLLIYYTSSLHSGVPSRFSGSGSGTDYSLTISNLEPEDIATYYCQQYSELPYTFGSGTKLEIKR
On to B6, for which the “% blocking” value in experiment [1] was > 95%.

B7: 847.15F9 (antibody, V domains shown)
VH: QVQMKQSGPGLVQPSQSLSITCTVSGFSLINYGVHWVRQSPGKGLEWLGVIWSGGSTDYNAAFISRLSISKDNSKSQVFFKMNSLQADDTAIYYCARIYYYGRGYAMDYWGQGTSVTVSS
VL: QIVLSQSPAILSASPGEKVTMTCRASSSVTYMYWYQQKPGSSPQPWIYATSNLASGVPARFSGSGSGTSYSLTISRVEAEDAATYYCQQWSSNPLTFGAGTKLELK
As for B7, in experiment [2], the “% inhibition of IL-6 secretion” value amounted to 16.6% and the “% inhibition of TNFα secretion” value was -178%. Besides, the “% inhibition of CD62L shedding” value in experiment [3] was 8.5%. Besides, the binding result in experiment [4] is “no binding”.

B8: 847.2B8 (antibody, V domains shown)
VH: QVQLKQSGPGLVQPSQSLSITCTVSGFSLINYGVHWVRQSPGKGLEWLGVIWSGGSTDYNAAFISRLSISKDNSKSQVFFKMNSLQADDTAIYYCARIYYYGRGYAMDYWGQGTSVTVSS
VL: QILLSQSPAILSASPGEKVTMTCRASSSVTYMYWYQQKPGSSPQPWIYATSNLASGVPARFSGSGSGTSYSLTISRVEAEDAATYYCQQWSSNPLTFGAGTKLELK
As for B8, the “% inhibition of CD62L shedding” value in experiment [3] came to 7%. Further, the binding result in experiment [4] is “no binding”.

B9: 847.11D6 (antibody, V domains shown)
VH: EVKLQQSGPELMKPGTSMKISCKASGYSFTGYTMNWVKQSHGKNLEWIGLINPYNGGTNYNQKFRGKATLSVDKSSNTAYMELLSLTSEDSAVYYCARKDDYYGSSPYALDYWGQGTSVTVSS
VL: DIVMTQSPASLAVSLGQRATISCRASESVENHVNSFMHWFQQKPGQPPKLLIYRASNLQSGIPARFSGSGSRTDFTLTINPVEADDVATYYCQQNNEVPYTFGGGTKLEIK
In the case of B9, in experiment [2], the “% inhibition of IL-6 secretion” value amounted to 22.7% and the “% inhibition of TNFα secretion” value is -3.1%. In addition, the “% inhibition of CD62L shedding” value in experiment [3] is 83.2%.

B10: 849.4B2 (antibody, V domains shown)
VH: DGKLQESGPGLVKPSQSLSLTCSVTGYSITSGYYWNWIRQFPGNKLEWMGHISYDGRNNYNPSLKNRISITRDTSKNQFFLKLNSVTTEDTATYYCAGYDFLWYFDVWGTGTTVTVSS
VL: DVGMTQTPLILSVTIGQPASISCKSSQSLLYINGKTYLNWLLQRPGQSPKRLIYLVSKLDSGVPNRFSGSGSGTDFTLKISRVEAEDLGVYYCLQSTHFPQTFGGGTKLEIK
On to B10, for which, in experiment [2], the “% inhibition of IL-6 secretion” value was -9.8% and the “% inhibition of TNFα secretion” value is -162%. For the same molecule, the “% inhibition of CD62L shedding” value in experiment [3] is 6.2%. The binding result in experiment [4] is recorded as “no binding”.

B11: 847.4D3 (antibody, V domains shown)
VH: EVQLVESGGGLVKPGGSLKLSCAASGFTFSSYAMSWVRQTPEKRLEWVASISSGDSPYYPDSVKGRFTISRDNARNILYLQMSSLRSEDTAMYYCTRFTTVVEMDYWGQGTSVTVSS
VL: DVVMTQTPKFLPITAEDRVTITCKASQSVSNEVAWYQQKPGQSPKLLIYYASNRYTGVPDRFTGSGSGTDFTFTIRSVQLEDLAVYFCQQHYSSPWTFGGGTKLEIK
As for B11, in experiment [3], the “% inhibition of CD62L shedding” value came out at 7.5%. Besides, the binding result in experiment [4] was “no binding”.

B12: 24D12.2H9 (antibody, human IgG4 S228P, kappa, V domains shown)
VH: QVQLKQSGPGLVQPSQSLSITCTVSGFSLTSYGVHWVRQAPGKGLEWLGVIWSGGSTDYNAAFMSRLSISKDNSKSQVFFKMNSLQADDTAIYYCAKSPDGYDVAWFGYWGQGTLVTVSA
VL: DIVMTQSHKFMSTSVGDRVSITCKASQDVRTAVAWYQQKPGQSPKLLIYWASTRHTGVPDRFTGSGSGTDFTLTLSNVQSEDLADYFCQQYSSYPWTFGGGTKLEIKR
For B12, in experiment [2], the “% inhibition of IL-6 secretion” value stood at 22.3% and the “% inhibition of TNFα secretion” value amounted to 46.5%. For the same molecule, the “% inhibition of CD62L shedding” value in experiment [3] worked out at 73.1%. For the same molecule, the “% blocking” value in experiment [1] came out at 55%.

B13: TB001 (antibody, human IgG4 S228P, kappa, V domains shown)
VH: QVQLVQSGSELKKPGASVKVSCKASGYTFTNYGMNWVRQAPGQGLKWMGWINTNTGEPTYVEEFTGRFVFSLETSVSTAYLQISSLKAEDTAVYFCAPYDNFFAYWGQGTTVTVSS
VL: DIVLTQSPLSLPVTPGEPASISCRSSKSLLYKDGKTYLNWFLQKPGQSPQLLIYLMSTHASGVPDRFSGSGSGTDFTLKISRVEAEDVGVYYCQQLVDYPLTFGGGTKLEIKR
As for B13, in experiment [2], the “% inhibition of IL-6 secretion” value came to 45.6% and the “% inhibition of TNFα secretion” value came out at 81.4%. Further, in experiment [3], the “% inhibition of CD62L shedding” value worked out at 87.2%. Besides, in experiment [5], the “IC50 of blocking IL-6 secretion by HL60-derived neutrophils (rhGal3 + LPS)” value was 509 nM and the “IC50 of blocking TNFα secretion by HL60-derived neutrophils (rhGal3 + LPS)” value came to 393 nM.

B14: 847.28D1 (antibody, V domains shown)
VH: QVQLVETGPGLVAPSQSLSITCTVSGFSLTSYGVHWIRQSPGKGLEWLGTIWAGGSTDYNSPLMSRLSISKDNSKNQVFLKMNSLQIDDTAIYYCASPPSGYDYDVFASWGQGTLVTVSA
VL: DIRMTQSPASLSASVGETVTITCRASGNIHNYLAWYHQKQGKSPQLLVYNVKTLADGVPSRFSGSGSGTQFSLKINSLQPEDFGTYYCQHFWSIFPTFGGGTKLEIK
For the molecule B14, in experiment [2], the “% inhibition of IL-6 secretion” value was found to be 78.6% and the “% inhibition of TNFα secretion” value stood at 80.5%. Further, the “% inhibition of CD62L shedding” value in experiment [3] is 110%.

B15: 847.3B3 (antibody, V domains shown)
VH: QVQLKESGPGLVAPSQSLSITCTVSGFSLTSYGVHWIRQPPGKGLEWLGGIWAGGSTDYNSPLMSRLSITKDNSKSQVFLKMNSLQSDDTAMYYCASPPSGYDYDVFAYWGQGTLVTVSA
VL: DILMTQSPASLSASVGETVTITCRASGNIHNYLAWYQQKQGKSPQLLVYSAKTLADGVPSRFSGSGSGTQFSLKIDSLQPEDFGTYYCQHFWSLFPTFGGGTKLEIK
As to B15, in experiment [2], the “% inhibition of IL-6 secretion” value was determined as 72.3% and the “% inhibition of TNFα secretion” value amounted to 94.3%. Besides, in experiment [3], the “% inhibition of CD62L shedding” value was determined as 43.4%.

B16: 849.4F12 (antibody, V domains shown)
VH: QVQLKESGPGILQPSQTLSLTCSFSGFSLSTFGMGVGWIRQPSGKGLEWLAHIWWDDDKHYNPALKSRLTISKDTSKNQVFLRIANVDTADNATYYCARIDYGDYVGFAYWGQGTLVTVSA
VL: DILLTQSPSSMSVSLGDTVSITCHASQGINSNIGWLQQKPGKSFKGLIYHGTNLEDGVPSRFSGSGSGADYSLTISSLESEDFADYYCVQYDQFPWTFGGGTKLEIK
As to B16, in experiment [2], the “% inhibition of IL-6 secretion” value was 1.2% and the “% inhibition of TNFα secretion” value is -81.5%. In experiment [3], the “% inhibition of CD62L shedding” value was found to be 17.9%. Also, in experiment [4], the binding result is listed as “no binding”.

B17: 846T.4C9 (antibody, V domains shown)
VH: EVQLQQSGPELVKPGASVKMSCKASGYSFTNYIMHWVKQKPGQGLEWIGYINPYNDGTKYNEKFKGKATLTSDKSSSTAYMELSSLTSEDSAVYYCARLLFYYAMDYWGQGTSVTVSS
VL: DILMTQTPSSMSVSLGDTVSITCHASQGISSNIGWLQQKPRKSFKGLIYYGTNLEDGVPSRFSGSGSGADYSLTISSLESEDFADYYCVQYDQFPWTFGGGTKLEIK
In the case of B17, in experiment [2], the “% inhibition of IL-6 secretion” value is -38.3% and the “% inhibition of TNFα secretion” value is -299%. Also, in experiment [3], the “% inhibition of CD62L shedding” value was found to be 11.2%. The binding result in experiment [4] was “no binding”.
